Columns and labels:
rFVIII [1] = target: T1, rFVIII (Homo sapiens, UniProt P00451); assay: confirmatory binding assay in filtration plate format using 14C-rFVIII; settings: Table 4; for Total dpm / beads % total / beads dpm: 14C-rFVIII 30 nM; for 0.5M CaCl2 % total / 2% acetic acid % total / 2% acetic acid dpm / 0.5M CaCl2 dpm: 14C-rFVIII 30 nM in PPF, 5 mg beads; for 0.5M CaCl2 dpm: 5.0 × 10^15 dpm/mole, 5° C.; for beads % total / beads dpm: remaining on beads after washes
Method: Confirmatory binding assays were performed in a filtration plate format using individual peptide sequences synthesized directly onto the TOYOPEARL AF amino 650 M resin, at a final substitution density of 0.1 mmole/g resin. A slurry of each individual peptide sequence was prepared using deionized water. A 100 μL volume of beads (corresponding to 5 mg) was loaded into each well of the filtration plate (MULTISCREEN Assay System, Millipore, Bedford, Mass.), in triplicate for each peptide sequence. Beads were washed with 20% ethanol and incubated overnight with equilibration buffer (20 mM imidazole, 10 mM
CaCl2, 0.105 M NaCl, pH 6.9). A 100 μL aliquot of ^14 C-rFVIII diluted in neat PPF to a final concentration of 20-30 nM was loaded into each well and incubated for 1 hour at 5° C. Filtrate (unbound ^14 C-rFVIII) was collected into a microtiter plate and transferred to liquid scintillation vials for dpm counting. Beads were washed sequentially with: 100 μL of equilibration buffer for 15 minutes, 200 μL of 0.5 M CaCl2 (in equilibration buffer), 200 μL of 1.0 M CaCl2 (in equilibration buffer), and 200 uL of 2% by volume glacial acetic acid in water, for 1 hour each at 5° C. Scintillation counting on the unbound ^14 C-rFVIII (plus equilibration buffer wash), salt and acid washes, as well as on the beads was then performed and the overall mass balance calculated.
Beads presenting the appropriate peptide sequence on the surface were placed in the filtration plate wells and incubated sequentially with equilibration buffer, ^14 C-rFVIII in PPF, equilibration buffer, 0.5 M CaCl2 wash, 1.0 M CaCl2 wash and 2% acetic acid wash. After each incubation, filtrate was collected in microtiter plates, and dpm counted on each
In Table 3, the ^14 C-rFVIII was loaded at 20 nM (in PPF) and the radiolabeling yield was at 3.0×10^15 dpm/mole. In Table 4, the ^14 C-rFVIII was loaded at 30 nM (in PPF) and the radiolabeling yield was at 5.0×10^15 dpm/mole.

rFVIII [2] = target: T1, rFVIII; assay: column format binding assay, rFVIII mass per fraction by sandwich capture ELISA for the light chain; settings: for 0.5M CaCl2 ng / 0.5M CaCl2 % total / 2% acetic acid % total / 2% acetic acid ng / Flow through % total / Total ng / Flow through ng: Table 6; for Flow through ng: 10,000 ng rFVIII in 1:10 PPF injected, 5° C.; for ELISA results % total: Table 9, 0.5M CaCl2 fraction
Method: (§1) Immunoassay on rFVIII using a sandwich capture ELISA for the light chain and activity assay using a chromogenic substrate (COATEST Factor VIII kit from diaPharma, Franklin, Ohio) were performed on a BIOMEK® automated liquid handling system from Beckman Instruments (Brea, Calif.). The monoclonal antibody for rFVIII light chain (known as C7F7), the ELISA assay standard (lot A70K019), and the control for the activity assay (lot A70A001 @ 140 IU/mL) were from the Bayer Corporation (Berkeley, Calif.). The standard for the activity assay was at 11.2 IU/mL (Bayer, Clayton, N.C.), calibrated against the MEGA 1 standard, which is a working standard used by American manufacturers for measuring factor VIII activity (21).
(§2) Additional confirmatory binding assay and performance of the discovered binding peptides in terms of total rFVIII and activity recovery was performed in a column chromatographic format on a microbore HPLC. The resins were packed into 0.4×5 cm columns (Thomson, Springfield, Va.) and tested on the MICHROM HPLC system (Michrom BioResources, Auburn, Calif.). The elution program for the trials utilized the following method. The column was pre-equilibrated with equilibration buffer (as above). A 1 mL aliquot of 1:10 PPF followed by 1 mL of rFVIII (10,000 ng) in 1:10 PPF were injected and allowed sufficient time to flow through the column using equilibration buffer. The column was then washed with step elutions of 0.5 M and 1.0 M CaCl2 in equilibration buffer. The column was exposed to equilibration buffer. Remaining protein was eluted with 2% by volume glacial acetic acid in water. Columns were kept at 5° C. during the chromatographic runs. For each 1 mL injection (equilibration buffer, 1:10 PPF and 10,000 ng rFVIII in 1:10 PPF), the chromatographic cycle was run for 45 minutes (injection, flow through, 0.5 M CaCl2, 1.0 M CaCl2, equilibration buffer, 2% acetic acid, equilibration buffer).
(§3) A Gilson FC204 fraction collector at the HPLC outlet collected individual eluates for further analysis. Each collection tube had 100 μL hSA added to it to stabilize the rFVIII. Fractions collected from the 2% acetic acid eluates were neutralized with 2 M Tris, pH 10.5 to bring the pH to neutrality. The fractions were analyzed for total protein by the integration of the absorbance at 280 nm, for rFVIII by immunoassay (sandwich capture ELISA), and for rFVIII activity by a chromogenic substrate assay.
Tables 5 and 6 present the results from the additional confirmatory binding assays using the column format. The chromatography method was run by injecting the samples at a flow rate of 865 μL/min (413 cm/hr). In order to provide a 10 minute residence time of sample in the column the flow was decreased to 17 μL/min (10 cm/hr) upon injection.
Following the incubation, the flow was set at 865 μL/min (413 cm/hr) for the step clutions of 0.5 M CaCl2, 1.0 M CaCl2, and 2% acetic acid. Results are expressed in terms of the total mass of rFVIII in each fraction, as determined by the sandwich capture ELISA assay for the rFVIII light chain. […] A control using a non-binding peptide sequence (IGF) is also shown for comparison--in this case, 95% of the rFVIII loaded to the column was collected in the flow through fraction. Additional controls with no

rFVIII [3] = target: T1, rFVIII; assay: rFVIII activity recovery from peptide columns by chromogenic substrate assay (COATEST); assay type: biochemical; settings: for 0.5M CaCl2 IU / 2% acetic acid % total / 2% acetic acid IU / Flow through % total / Total IU / 0.5M CaCl2 % total / Flow through IU: Table 8; for 0.5M CaCl2 % total: activity recovery; for Flow through IU: rFVIII activity in fraction; for Activity results % total: Table 9, 0.5M CaCl2 fraction
Method: as §1, §2, §3
Tables 7 and 8 list the sequences for which activity recovery was determined by a chromogenic substrate assay (COASTEST kit, diaPharma, Franklin, Ohio). Chromatographc conditions are the same as described above for the results from Tables 5 and 6. It can be

T1 sequence (P00451 20-2351): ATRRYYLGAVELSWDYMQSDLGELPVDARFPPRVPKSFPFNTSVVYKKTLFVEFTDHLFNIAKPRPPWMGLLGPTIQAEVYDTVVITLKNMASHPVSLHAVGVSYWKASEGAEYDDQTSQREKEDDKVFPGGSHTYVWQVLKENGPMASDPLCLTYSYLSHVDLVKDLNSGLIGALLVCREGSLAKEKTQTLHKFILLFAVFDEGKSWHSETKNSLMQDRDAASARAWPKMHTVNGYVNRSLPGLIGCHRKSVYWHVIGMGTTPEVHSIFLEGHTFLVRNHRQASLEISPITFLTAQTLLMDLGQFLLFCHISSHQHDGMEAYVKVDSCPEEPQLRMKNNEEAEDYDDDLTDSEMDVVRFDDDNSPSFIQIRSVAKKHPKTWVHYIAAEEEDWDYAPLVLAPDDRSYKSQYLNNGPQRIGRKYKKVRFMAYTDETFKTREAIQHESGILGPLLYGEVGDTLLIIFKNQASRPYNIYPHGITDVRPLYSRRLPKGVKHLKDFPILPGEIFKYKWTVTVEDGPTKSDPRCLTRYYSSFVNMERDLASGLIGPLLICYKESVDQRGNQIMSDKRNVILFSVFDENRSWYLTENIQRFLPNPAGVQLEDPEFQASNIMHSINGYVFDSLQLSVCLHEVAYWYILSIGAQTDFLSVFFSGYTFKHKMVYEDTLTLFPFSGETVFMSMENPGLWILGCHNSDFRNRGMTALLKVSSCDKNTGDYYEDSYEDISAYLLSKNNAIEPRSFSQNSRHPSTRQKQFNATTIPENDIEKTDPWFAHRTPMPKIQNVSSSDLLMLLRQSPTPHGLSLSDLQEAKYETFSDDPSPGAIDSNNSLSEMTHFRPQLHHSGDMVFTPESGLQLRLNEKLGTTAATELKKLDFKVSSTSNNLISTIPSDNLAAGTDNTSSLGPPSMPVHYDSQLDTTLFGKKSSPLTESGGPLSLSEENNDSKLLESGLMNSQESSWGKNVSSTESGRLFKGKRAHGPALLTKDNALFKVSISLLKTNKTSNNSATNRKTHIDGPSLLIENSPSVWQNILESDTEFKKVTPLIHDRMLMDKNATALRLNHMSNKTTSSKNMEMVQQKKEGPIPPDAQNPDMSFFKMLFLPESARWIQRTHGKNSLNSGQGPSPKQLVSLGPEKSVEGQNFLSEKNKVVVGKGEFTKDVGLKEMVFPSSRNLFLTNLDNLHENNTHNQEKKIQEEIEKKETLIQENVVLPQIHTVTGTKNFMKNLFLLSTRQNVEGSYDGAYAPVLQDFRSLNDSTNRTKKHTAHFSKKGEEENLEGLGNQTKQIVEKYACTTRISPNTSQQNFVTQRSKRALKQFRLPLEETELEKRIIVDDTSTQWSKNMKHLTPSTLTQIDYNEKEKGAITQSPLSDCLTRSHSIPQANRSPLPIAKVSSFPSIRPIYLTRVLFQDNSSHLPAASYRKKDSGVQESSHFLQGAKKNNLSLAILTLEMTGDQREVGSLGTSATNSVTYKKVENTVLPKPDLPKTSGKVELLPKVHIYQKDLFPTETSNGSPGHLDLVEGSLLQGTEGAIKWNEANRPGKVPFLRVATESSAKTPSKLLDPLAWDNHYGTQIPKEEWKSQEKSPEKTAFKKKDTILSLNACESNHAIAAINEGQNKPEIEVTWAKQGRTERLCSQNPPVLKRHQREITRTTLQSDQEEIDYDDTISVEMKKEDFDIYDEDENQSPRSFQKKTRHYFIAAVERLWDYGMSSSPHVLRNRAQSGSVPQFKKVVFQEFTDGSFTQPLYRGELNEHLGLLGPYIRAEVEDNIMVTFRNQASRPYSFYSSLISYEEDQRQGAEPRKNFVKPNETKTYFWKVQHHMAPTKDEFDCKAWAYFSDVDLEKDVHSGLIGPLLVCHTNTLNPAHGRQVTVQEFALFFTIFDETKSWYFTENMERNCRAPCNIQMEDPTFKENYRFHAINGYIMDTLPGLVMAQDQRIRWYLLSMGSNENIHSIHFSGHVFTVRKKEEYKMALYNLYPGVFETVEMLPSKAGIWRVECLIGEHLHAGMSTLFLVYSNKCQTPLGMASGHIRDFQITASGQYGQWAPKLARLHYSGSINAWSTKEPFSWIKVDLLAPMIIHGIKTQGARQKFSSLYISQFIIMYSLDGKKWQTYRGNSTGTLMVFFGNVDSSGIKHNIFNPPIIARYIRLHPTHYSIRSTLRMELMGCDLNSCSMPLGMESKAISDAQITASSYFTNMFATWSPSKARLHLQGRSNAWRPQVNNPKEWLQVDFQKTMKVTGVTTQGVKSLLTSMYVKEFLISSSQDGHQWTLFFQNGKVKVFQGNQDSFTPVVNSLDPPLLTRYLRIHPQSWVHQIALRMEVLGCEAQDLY
T1 sequence (P00451 1668-2351 limits assumed): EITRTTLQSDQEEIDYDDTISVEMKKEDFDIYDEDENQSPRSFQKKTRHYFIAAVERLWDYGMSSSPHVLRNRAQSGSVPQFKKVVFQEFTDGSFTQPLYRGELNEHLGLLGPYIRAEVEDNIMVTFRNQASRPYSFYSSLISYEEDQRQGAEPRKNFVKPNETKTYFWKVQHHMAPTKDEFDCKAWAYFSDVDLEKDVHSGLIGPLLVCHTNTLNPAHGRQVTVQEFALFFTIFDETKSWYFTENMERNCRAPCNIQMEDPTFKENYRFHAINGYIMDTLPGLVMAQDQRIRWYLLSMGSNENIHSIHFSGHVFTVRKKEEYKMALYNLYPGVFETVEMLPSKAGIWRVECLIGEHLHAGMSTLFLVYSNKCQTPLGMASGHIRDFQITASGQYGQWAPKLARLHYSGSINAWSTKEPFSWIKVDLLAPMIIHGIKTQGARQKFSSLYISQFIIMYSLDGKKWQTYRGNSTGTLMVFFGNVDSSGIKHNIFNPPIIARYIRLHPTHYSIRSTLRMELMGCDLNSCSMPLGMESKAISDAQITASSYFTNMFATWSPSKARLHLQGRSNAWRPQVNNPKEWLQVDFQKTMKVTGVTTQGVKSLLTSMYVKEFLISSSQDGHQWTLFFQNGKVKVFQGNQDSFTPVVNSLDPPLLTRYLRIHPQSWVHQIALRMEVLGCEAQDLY

Substance	Total dpm (rFVIII [1]) [dpm]	0.5M CaCl2 % total (rFVIII [1]) [%]	2% acetic acid % total (rFVIII [1]) [%]	2% acetic acid dpm (rFVIII [1]) [dpm]	0.5M CaCl2 dpm (rFVIII [1]) [dpm]	beads % total (rFVIII [1]) [%]	beads dpm (rFVIII [1]) [dpm]	0.5M CaCl2 ng (rFVIII [2]) [ng]	0.5M CaCl2 % total (rFVIII [2]) [%]	2% acetic acid % total (rFVIII [2]) [%]	2% acetic acid ng (rFVIII [2]) [ng]	Flow through % total (rFVIII [2]) [%]	Total ng (rFVIII [2]) [ng]	Flow through ng (rFVIII [2]) [ng]	ELISA results % total (rFVIII [2]) [%]	0.5M CaCl2 IU (rFVIII [3]) [IU]	2% acetic acid % total (rFVIII [3]) [%]	2% acetic acid IU (rFVIII [3]) [IU]	Flow through % total (rFVIII [3]) [%]	Total IU (rFVIII [3]) [IU]	other results
10 (AFVRSL) [compound 10]	3764	93	5	188	3491	2	85	11023	98	1	135	0	11272	0	98	53.1	0	0.1	0	54.3	0.5M CaCl2 % total (rFVIII [3]): 98%; Flow through IU (rFVIII [3]): 0.0 IU; Activity results % total (rFVIII [3]): 98%
11 (NAIFQW) [compound 11]	2208	48	23	518	1049	29	641	7481	78	11	1069	7	9641	639	78	54.4	0	0.0	4	60.4	0.5M CaCl2 % total (rFVIII [3]): 90%; Flow through IU (rFVIII [3]): 2.5 IU; Activity results % total (rFVIII [3]): 90%
12 (QRLIQF) [compound 12]	3557	90	8	271	3191	3	95	9223	96	2	188	0	9579	0	96	45.1	0	0.08	0	46.6	0.5M CaCl2 % total (rFVIII [3]): 97%; Flow through IU (rFVIII [3]): 0.0 IU; Activity results % total (rFVIII [3]): 97%
13 (KAQETW) [compound 13]	4096	95	3	135	3884	2	77	8018	90	1	87	7	8863	641	90	48.3	0	0.09	2	50.3	0.5M CaCl2 % total (rFVIII [3]): 96%; Flow through IU (rFVIII [3]): 0.8 IU; Activity results % total (rFVIII [3]): 96%

Source: patent publication US6191256A, “Recombinant factor VIII binding peptides” (Bayer Corporation, priority 1998, dated 2001)
